Data from US20180016342A1 (published 2018).
Blank lines part the entries; values can stand above or below the molecule they belong to.

Columns and labels:
[1] = molecular target: membrane-bound IL6R on human cells (U266, XG-1, TF-1) (human) (UniProt P08887); test: cell-based or functional assay
human soluble IL6-R [2] = molecular target: T1, human soluble IL6-R (human, UniProt P08887 20-358); test: Alphascreen inhibition of IL6/IL6-R interaction
T1 chain: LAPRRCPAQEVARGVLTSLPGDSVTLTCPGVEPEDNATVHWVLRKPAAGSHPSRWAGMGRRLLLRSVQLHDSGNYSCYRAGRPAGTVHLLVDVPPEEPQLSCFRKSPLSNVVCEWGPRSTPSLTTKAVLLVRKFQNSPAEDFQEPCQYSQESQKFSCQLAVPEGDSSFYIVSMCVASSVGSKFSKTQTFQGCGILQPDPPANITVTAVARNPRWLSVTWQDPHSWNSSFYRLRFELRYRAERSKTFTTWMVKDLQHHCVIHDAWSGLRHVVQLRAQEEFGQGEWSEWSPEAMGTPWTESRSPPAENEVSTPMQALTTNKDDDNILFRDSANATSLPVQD

human soluble IL6-R [3] = molecular target: T1, human soluble IL6-R; test: Alphascreen inhibition of IL6/IL6-R interaction
[4] = molecular target: T2, soluble IL6-R in cynomolgus plasma (cynomolgus monkey, UniProt A0A2K5WN54 60-386); test: ELISA inhibition of IL-6 binding to plasma sIL6R; cyno plasma, 50 ng/mL IL-6
T2 chain: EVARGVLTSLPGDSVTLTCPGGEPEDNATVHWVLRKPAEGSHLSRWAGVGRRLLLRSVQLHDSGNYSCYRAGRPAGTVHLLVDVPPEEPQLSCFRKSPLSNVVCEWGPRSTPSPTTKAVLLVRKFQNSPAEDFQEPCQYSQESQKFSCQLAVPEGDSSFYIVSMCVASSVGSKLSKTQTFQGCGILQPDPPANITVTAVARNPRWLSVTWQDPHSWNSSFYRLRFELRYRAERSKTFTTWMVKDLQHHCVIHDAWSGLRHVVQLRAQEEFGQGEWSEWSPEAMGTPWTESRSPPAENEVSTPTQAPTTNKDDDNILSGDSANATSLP

human soluble IL6-R [5] = molecular target: T1, human soluble IL6-R; test: Alphascreen inhibition of IL6/IL6-R interaction; printed LOGEC50 -9.833
human soluble IL6-R [6] = molecular target: T1, human soluble IL6-R; test: Alphascreen inhibition of IL6/IL6-R interaction
human soluble IL6-R [7] = molecular target: T1, human soluble IL6-R; test: Alphascreen inhibition of IL6/IL6-R interaction

B1: IL6R03 (VHH)
VHH: EVQLVESGGGLVQAGGSLRLSCAASGSIFKVNAMGWYRQAPGKQRELVAGIISGGSTNYADSVKGRLTISRDNAKNTVYLQMNSLKPEDTAVYYCSFVTTNSDYDLGRDYWGQGTQVTVSS
EC50 (human soluble IL6-R [2]): 187 pM
EC50 (human soluble IL6-R [3]): 105 pM
EC50 [4]: 5880 pM

B2: IL6R63 (VHH)
VHH: EVQLVESGGGLVQPGGSLRLSCAASGSIFKVNAMGWYRQAPGKGRELVAGIISGGSTNYADSVKGRLTISRDNAKNTLYLQMNSLRPEDTAVYYCSFVTTNSDYDLGRDYWGQGTLVTVSS
EC50 (human soluble IL6-R [2]): 650 pM

B3: IL6R62 (VHH)
VHH: EVQLVESGGGLVQPGGSLRLSCAASGSIFKVNAMGWYRQAPGKGRELVAGIISGGSTNYADSVKGRFTISRDNAKNTVYLQMNSLRPEDTAVYYCSFVTTNSDYDLGRDYWGQGTLVTVSS
EC50 (human soluble IL6-R [2]): 280 pM

B4: IL6R65 (VHH)
VHH: EVQLVESGGGLVQPGGSLRLSCAASGSIFKVNAMGWYRQAPGKGRELVAGIISGGSTNYADSVKGRFTISRDNAKNTLYLQMNSLRPEDTAVYYCAFVTTNSDYDLGRDYWGQGTLVTVSS
EC50 (human soluble IL6-R [5]): 105 pM
EC50 [4]: 4910 pM

B5: IL6R61 (VHH)
VHH: EVQLVESGGGLVQPGGSLRLSCAASGSIFKVNAMGWYRQAPGKGRELVAGIISGGSTNYADSVKGRLTISRDNAKNTVYLQMNSLRPEDTAVYYCSFVTTNSDYDLGRDYWGQGTLVTVSS
EC50 (human soluble IL6-R [2]): 336 pM

B6: IL6R64 (VHH)
VHH: EVQLVESGGGLVQPGGSLRLSCAASGSIFKVNAMGWYRQAPGKGRELVAGIISGGSTNYADSVKGRLTISRDNAKNTVYLQMNSLRPEDTAVYYCAFVTTNSDYDLGRDYWGQGTLVTVSS
EC50 (human soluble IL6-R [2]): 108 pM

B7: IL6R04 (VHH)
VHH: EVQLVESGGGLVQAGGSLRLSCAASGFTFDDYDIGWFRQAPGKEREGVSGISSSDGNTYYADSVKGRFTISSDNAKNTVYLQMNSLKPEDTAVYYCAAEPPDSSWYLDGSPEFFKYWGQGTQVTVSS
EC50 (human soluble IL6-R [3]): 56.8 pM
EC50 (human soluble IL6-R [6]): 180 pM
EC50 [4]: 36900 pM

B8: IL6R75 (VHH)
VHH: EVQLVESGGGLVQPGGSLRLSCAASGFTFSDYDIGWFRQAPGKGREGVSGISSSDGNTYYADSVKGRFTISRDNAKNTLYLQMNSLRPEDTAVYYCAAEPPDSSWYLDGSPEFFKYWGQGTLVTVSS
EC50 (human soluble IL6-R [3]): 43.2 pM

B9: IL6R72 (VHH)
VHH: EVQLVESGGGLVQPGGSLRLSCAASGFTFSDYDIGWFRQAPGKGREGVSGISSSDGNTYYADSVKGRFTISSDNAKNTVYLQMNSLRPEDTAVYYCAAEPPDSSWYLDGSPEFFKYWGQGTLVTVSS
EC50 (human soluble IL6-R [6]): 160 pM

B10: IL6R73 (VHH)
VHH: EVQLVESGGGLVQPGGSLRLSCAASGFTFDDYDIGWFRQAPGKGREGVSGISSSDGNTYYADSVKGRFTISRDNAKNTVYLQMNSLRPEDTAVYYCAAEPPDSSWYLDGSPEFFKYWGQGTLVTVSS
EC50 (human soluble IL6-R [6]): 91.6 pM

B11: IL6R71 (VHH)
VHH: EVQLVESGGGLVQPGGSLRLSCAASGFTFDDYDIGWFRQAPGKGREGVSGISSSDGNTYYADSVKGRFTISSDNAKNTVYLQMNSLRPEDTAVYYCAAEPPDSSWYLDGSPEFFKYWGQGTLVTVSS
EC50 (human soluble IL6-R [6]): 153 pM

B12: IL6R74 (VHH)
VHH: EVQLVESGGGLVQPGGSLRLSCAASGFTFDDYDIGWFRQAPGKGREGVSGISSSDGNTYYADSVKGRFTISSDNAKNTLYLQMNSLRPEDTAVYYCAAEPPDSSWYLDGSPEFFKYWGQGTLVTVSS
EC50 (human soluble IL6-R [6]): 132 pM

B14: IL6R13 (VHH)
VHH: EVQLVESGGGLVQPGGSLRLSCAASGFTFDDYGMSWVRQAPGRATEWVSAISWNGNNTYYTESMKGRFTISRDNAKNTVYLQMNSLKPEDTAVYYCVKGSTAIVGVPPTYPDEYDYWGQGTQVTVSS
EC50 (human soluble IL6-R [3]): 50.5 pM
EC50 (human soluble IL6-R [7]): 64.4 pM
EC50 [4]: 11700 pM

The remaining lines, values ahead:

IC50 (nM), XG-1 cell based assay [1]: 0.272 nM
Molecule: MAb BN-12 (antibody)

IC50 (+1% HSA), TF-1 proliferation assay, 200 pg/ml IL-6 [1]: 0.088
IC50 (nM), XG-1 cell based assay [1]: 0.064 nM
IC50 (w/o HSA), TF-1 proliferation assay, 200 pg/ml IL-6 [1]: 0.042
Molecule: MAb BR-6 (antibody)

EC50 (human soluble IL6-R [7]): 465 pM
B13: IL6R84 (VHH)
VHH: EVQLVESGGGLVQPGGSLRLSCAASGFTFDDYGMSWVRQAPGKGLEWVSAISWNGNNTYYTESMKGRFTISRDNAKNTLYLQMNSLRPEDTAVYYCVKGSTAIVGVPPTYPDEYDYWGQGTLVTVSS

EC50 (human soluble IL6-R [3]): 72.7 pM
EC50 [4]: 23300 pM
B15: IL6R88 (VHH)
VHH: EVQLVESGGGLVQPGGSLRLSCAASGFTFDDYGMSWVRQAPGKGTEWVSAISWNGNNTYYTESMKGRFTISRDNAKNTLYLQMNSLRPEDTAVYYCVKGSTAIVGVPPTYPDEYDYWGQGTLVTVSS

EC50 (human soluble IL6-R [7]): 74.7 pM
B16: IL6R81 (VHH)
VHH: EVQLVESGGGLVQPGGSLRLSCAASGFTFDDYGMSWVRQAPGRATEWVSAISWNGNNTYYTESMKGRFTISRDNAKNTVYLQMNSLRPEDTAVYYCVKGSTAIVGVPPTYPDEYDYWGQGTLVTVSS

EC50 (human soluble IL6-R [7]): 476 pM
B17: IL6R82 (VHH)
VHH: EVQLVESGGGLVQPGGSLRLSCAASGFTFDDYGMSWVRQAPGKGLEWVSAISWNGNNTYYTESMKGRFTISRDNAKNTVYLQMNSLRPEDTAVYYCVKGSTAIVGVPPTYPDEYDYWGQGTLVTVSS

EC50 (human soluble IL6-R [7]): 77.9 pM
B18: IL6R83 (VHH)
VHH: EVQLVESGGGLVQPGGSLRLSCAASGFTFDDYGMSWVRQAPGRATEWVSAISWNGNNTYYTESMKGRFTISRDNAKNTLYLQMNSLRPEDTAVYYCVKGSTAIVGVPPTYPDEYDYWGQGTLVTVSS
